# Experimental data reported in patent publication US20220135701A1 (Genentech, published 2022).
# Changes are numbered by the printed parent chain.
# T1: human MerTK (human, UniProt Q12866 26-499)
# T1 construct: also called HuMER
# T1 sequence: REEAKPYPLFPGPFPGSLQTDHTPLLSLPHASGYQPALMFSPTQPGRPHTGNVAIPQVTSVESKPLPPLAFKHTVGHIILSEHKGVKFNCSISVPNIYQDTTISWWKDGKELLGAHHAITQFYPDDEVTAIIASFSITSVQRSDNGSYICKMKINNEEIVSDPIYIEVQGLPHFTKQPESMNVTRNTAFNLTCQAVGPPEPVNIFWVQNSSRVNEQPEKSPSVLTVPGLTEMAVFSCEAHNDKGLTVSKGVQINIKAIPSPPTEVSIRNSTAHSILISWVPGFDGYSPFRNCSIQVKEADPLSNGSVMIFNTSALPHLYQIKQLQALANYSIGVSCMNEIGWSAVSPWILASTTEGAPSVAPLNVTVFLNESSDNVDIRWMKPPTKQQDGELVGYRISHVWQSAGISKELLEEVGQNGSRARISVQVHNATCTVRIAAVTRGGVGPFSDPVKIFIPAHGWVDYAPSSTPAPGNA
# B1: h9E3.FN.V1 HC F91Y (antibody, name in Kabat numbering, V domains shown)
# VH: EQQLVESGGGLIQPGGSLRLSCAVSGFSLSSNAMSWVRQAPGKGLEWIGIISSSGSTYSASWAKGRFTISKDSSKNTMYLQMNSLRAEDTAVYYCARVGFFVGYGAYDYGIIHRLDLWGQGTLVTVSS
# VL: DAQLTQSPSTLSASVGDRVTITCQSSKSIYNNNWLSWYQQKPGKPPKLLIYDASDLASGVPSRFSGSGSGTEFTLTISSLQPDDFATYYCAGGYSGDSDYAFGGGTKVEIK
# notes: Framework variant of h9E3.FN.v1 (human IgG1)
# B2: h9E3.FN.V1 HC K71R (antibody, human IgG1, name in Kabat numbering, V domains shown)
# VH: B1 VH with K71R, Y94F
# VL: B1 VL
# notes: as for B1
# B3: h9E3.FN.V1 LC L4M (antibody, human IgG1, name in Kabat numbering, V domains shown)
# VH: B1 VH with Y94F
# VL: B1 VL with L4M
# notes: as for B1
# B4: h9E3.FN.V1 HC S73N (antibody, human IgG1, name in Kabat numbering, V domains shown)
# VH: B1 VH with S73N, Y94F
# VL: B1 VL
# notes: as for B1
# B5: h9E3.FN.V1 HC G49S (antibody, human IgG1, name in Kabat numbering, V domains shown)
# VH: B1 VH with G49S, Y94F
# VL: B1 VL
# notes: as for B1
# B6: h9E3.FN.V1 HC Q2V (antibody, human IgG1, name in Kabat numbering, V domains shown)
# VH: B1 VH with Q2V, Y94F
# VL: B1 VL
# notes: as for B1
# B7: h9E3.FN.V1 LC P43A (antibody, name in Kabat numbering, V domains shown)
# VH: B1 VH with Y94F
# VL: B1 VL with P45A
# notes: as for B1
# B8: h9E3.FN.V1 LC A2I (antibody, human IgG1, name in Kabat numbering, V domains shown)
# VH: B1 VH with Y94F
# VL: B1 VL with A2I
# notes: as for B1
# B9: h9E3.FN.V1 HC M78L (antibody, human IgG1, name in Kabat numbering, V domains shown)
# VH: B1 VH with M78L, Y94F
# VL: B1 VL
# notes: as for B1
# B10: h9E3.FN.V1 HC V24A (antibody, human IgG1, name in Kabat numbering, V domains shown)
# VH: B1 VH with V24A, Y94F
# VL: B1 VL
# notes: as for B1
# B11: h9E3.FN.V1 HC I48V (antibody, human IgG1, name in Kabat numbering, V domains shown)
# VH: B1 VH with I48V, Y94F
# VL: B1 VL
# notes: as for B1
# B12: h10F7.V1 LC A2I (antibody, human IgG1, name in Kabat numbering, V domains shown)
# VH: EQQLVESGGGLVQPGGSLRLSCAVSGFSLSGYAMSWVRQAPGKGLEYIGVISSSGSSYYPSWAKGRFTISKDSSKNTVYLQMGSLRAEDMAVYFCARVQFYVGYAVYGYGIIDRLDLWGQGTLVTVSS
# VL: DIVLTQSPDSLAVSLGERATINCQSSKSVYNNNWLSWYQQKPGQPPKLLIYRASTLESGVPDRFSGSGSGTDFTLTISSLQAEDVAVYFCAGGYSSSSSANAFGGGTKVEIK
# notes: Framework variant of h10F7.v1 (human IgG1)
# B13: h10F7.V1 LC F87Y (antibody, name in Kabat numbering, V domains shown)
# VH: B12 VH
# VL: B12 VL with I2A, F89Y
# notes: as for B12
# B14: h10F7.V1 LC L4M (antibody, human IgG1, name in Kabat numbering, V domains shown)
# VH: B12 VH
# VL: B12 VL with I2A, L4M
# notes: as for B12
# B15: h10C3.V1 HC F91Y (antibody, name in Kabat numbering, V domains shown)
# VH: EQQLVESGGGLVQPGGSLRLSCAASGFSLSGYTMGWVRQAPGKGLEYIGVISSGGTTYYTNWAKGRFTISKDSSKNTVYLQMGSLRAEDMAVYYCARVAFTAYGGGGFPTLHRLDLWGQGTLVTVSS
# VL: DQVLTQSPDSLAVSLGERATINCQSSESVYNNDYLAWYQQKPGQPPKLLIYSASTLASGVPDRFSGSGSGTDFTLTISSLQAEDVAVYYCAGGYLGNNVFGGGTKVEIK
# notes: Framework variant of h10C3.v1 (human IgG1)
# B16: h10C3.V1 HC K71R (antibody, human IgG1, name in Kabat numbering, V domains shown)
# VH: B15 VH with K71R, Y94F
# VL: B15 VL
# notes: as for B15
# B17: h10C3.V1 LC Q2I (antibody, human IgG1, name in Kabat numbering, V domains shown)
# VH: B15 VH with Y94F
# VL: B15 VL with Q2I
# notes: as for B15
# B18: h10C3.V1 HC G49S (antibody, human IgG1, name in Kabat numbering, V domains shown)
# VH: B15 VH with G49S, Y94F
# VL: B15 VL
# notes: as for B15
# B19: h10C3.V1 HC V78L (antibody, human IgG1, name in Kabat numbering, V domains shown)
# VH: B15 VH with V78L, Y94F
# VL: B15 VL
# notes: as for B15
# B20: h10C3.V1 HC I48V (antibody, human IgG1, name in Kabat numbering, V domains shown)
# VH: B15 VH with I48V, Y94F
# VL: B15 VL
# notes: as for B15
# B21: h10C3.V1 HC Q2V (antibody, human IgG1, name in Kabat numbering, V domains shown)
# VH: B15 VH with Q2V, Y94F
# VL: B15 VL
# notes: as for B15
# B22: h10C3.V1 LC L4M (antibody, human IgG1, name in Kabat numbering, V domains shown)
# VH: B15 VH with Y94F
# VL: B15 VL with L4M
# notes: as for B15
# B23: h10C3.V1 HC S73N (antibody, human IgG1, name in Kabat numbering, V domains shown)
# VH: B15 VH with S73N, Y94F
# VL: B15 VL
# notes: as for B15
# Target: T1, human MerTK
# Assay: SPR BIAcore T200, Ab captured, 37C
# Experimental: Each humanized mutation variant was subject to BIAcore analysis to determine the important rabbit residues for binding and stability. Binding affinity determinations were obtained using Surface Plasmon Resonance (SRP) measurements from a BIAcore™-T200 instrument. Briefly, each humanized mutation variant antibody was captured to achieve approximately 100 RU (Response Units). Then, 3-fold serial dilutions of human MerTK (0.4 nM to 100 nM) diluted in HBS-EP buffer (0.01M HEPES pH 7.4, 0.15M NaCl, 3 mM EDTA and 0.05% v/v surfactant P20) was injected into the BIAcore™-T200 instrument at 37° C. with a flow rate of 30 μl/min. Association rates (kₒₙ) and dissociation rates (koff) were calculated using a simple one-to-one Langmuir binding model (BIAcore T200 evaluation software version 2.0). The equilibrium dissociation constant (KD) was calculated as the ratio koff/kₒₙ.
row,Kd [nM],Binder
1,11.5,B1
2,41.3,B2
3,7.5,B3
4,12.3,B4
5,5.6,B5
6,10.2,B6
7,15,B7
8,10.7,B8
9,12.5,B9
10,8.7,B10
11,10.2,B11
12,5.9,B12
13,8.8,B13
14,6.2,B14
15,14.9,B15
16,20,B16
17,17.1,B17
18,30.2,B18
19,7.4,B19
20,17.1,B20
21,12.5,B21
22,12.3,B22
23,15,B23
